Positions count from the first letter of the chain named.

The target of assay [1] is T1, claudin 18.2 (CLDN18.2) (human).
T1 construct: also called Claudin 18 isotype 2; HEK293-CLDN18.2
In words: FACS, HEK293-CLDN18.2 cells. (Flow cytometry measures light scatter and fluorescence of single cells or particles in a stream.)
Method: The interaction of 20 purified chimeric antibodies with CLDN18.2 was assessed by in-cell ELISAs and FACS using HEK293-CLDN18.2 cells. […] The FACS assays were performed as follows: Serial dilutions for each antibody clone shown in Tables 7 and 8 were prepared and stained with HEK293-CLDN18.2 cells on ice for 30 min, with final antibody concentrations of 10 g/ml, 3 g/ml, 1 g/ml, 0.3 μg/ml, 0.1 μg/ml, 0.03 μg/ml, 0.01 μg/ml, and 0 μg/ml. […] Cells were washed, and analyzed by FACS.

The target in assay [2] is T1, claudin 18.2 (CLDN18.2). The assay is described as follows: in-cell ELISA, HEK293-CLDN18.2 cells. For orientation: In an ELISA, binding on a coated surface is turned into a signal by an enzyme label.
Method: (§1) In-cell ELISAs were performed as follows: 5×10³ HEK293-CLDN18.2 cells were seeded per well in a poly-L-lysine-coated 96-well plate. The plates were then incubated at 37° C. with 5% CO₂ for 2 days. Following incubation, culture media was removed from each well, and the HEK293-CLDN18.2 cells were blocked with 200 μl blocking buffer (3% BSA/PBS (pH 7.4)) per well for 1 hour at room temperature. Each hybridoma supernatant was incubated with cells at room temperature for 1 hour. Cells were gently washed 3 times with 200 μl PBS (pH 7.4) containing 1 mM Ca²⁺ and 0.5 mM Mg²⁺. Next, cells were incubated with 100 μl of HRP-conjugated goat anti-human IgG (H+L) antibody for 1 hour at room temperature. Following the incubation, the cells were washed three times with 200 μl PBS (pH 7.4) containing 1 mM Ca²⁺ and 0.5 mM Mg²⁺. 100 μl of 1-Step™ Ultra TMB-ELISA Substrate was added to each well, and the reactions were stopped by addition of 50 μl of stop solution. OD₄₅₀ was measured using CLARIOStar microplate reader. The in-cell ELISAs were repeated for each clone using HEK293-CLDN18.1 cells.
The in-cell ELISAs were performed as described above. […] Cells were washed, and analyzed by FACS.
For assay [3], the target named is T2, claudin 18.1 (CLDN18.1) (human, UniProt P56856 1-261).
T2 construct: also called HEK293-CLDN18.1
The assay is described as follows: in-cell ELISA, HEK293-CLDN18.1 cells.
Method: as §1

T2 sequence (P56856 whole entry): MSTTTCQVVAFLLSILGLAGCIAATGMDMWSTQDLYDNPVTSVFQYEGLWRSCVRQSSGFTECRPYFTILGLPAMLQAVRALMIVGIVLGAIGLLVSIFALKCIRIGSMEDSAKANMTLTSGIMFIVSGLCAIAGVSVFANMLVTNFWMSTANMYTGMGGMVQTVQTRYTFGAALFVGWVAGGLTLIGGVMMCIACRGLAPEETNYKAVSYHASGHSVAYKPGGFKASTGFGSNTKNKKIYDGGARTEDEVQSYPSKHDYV

B1: chimeric Ab 10-P12-A (antibody, V domains shown)
VH: EIQLQQSGAELVKPGTSVKISCKASGYSFTGYNMNWVKQSHGKSLEWIGNINPYYSNTNYNQRFKGKATLTVDKSSSTAYMQLNSLTSEDSAVYYCARHVRGNSFDYWGQGTTLTVSS
VL: DIVMTQSPSSLTVTAGERVTVGCKSRQSLFNSENQKNYLSWYQQKPGQPPKLLLYWTSTRESGVPERFTGSGSGTDFTLTISSVQAEDLAVYYCQNNYIYPFTFGSGTKLEIK
In general, EC50 refers to the concentration that produces a half-maximal response. A lower EC50 goes with a more potent agent. In the case of B1, the 50% effective concentration (EC50) in assay [1] is 0.018 µg/mL; in assay [2], 0.106 µg/mL.

B2: chimeric Ab 10-J10-B (antibody, V domains shown)
VH: QVQLQQSGAELARPGASVKLSCKASGYTFTSWSISWVKQRTGQGLEWIGEIYPRSDNIHYNEKFKGKATLTADKSSSTVYMQLSSLTSEDSAVYFCARAYYGNSFAYWGQGTLVTVSA
VL: DIVMTQSPSSLTVTAGEKVTMTCKSSQILLNSGNQKNYLTWYQQKPGQPPKLLIYWASTRESGVPDRFTGSGSGTDFSLTISSVQAEDLAIYYCQNDYYYPFTFGSGTKLEIK
notes: also called 10-110-B; 10-10-B
As to B2, the 50% effective concentration (EC50) turned out to be 0.141 µg/mL in assay [1] and 0.062 µg/mL in assay [2]. In assay [3], the binding result is recorded as “no binding (tested: 1 µg/ml)”.

B3: chimeric Ab 6-C5-A (antibody, V domains shown)
VH: EVQLVESGGGLVKPGGSRKLSCAASGFTFSDYGMHWVRQAPEKGLEWVAYISSGSSTIYYADTMKGRFTISRDNAKNTLFLQMTSLRSEDTAMYYCTRFARGNTMDYWGQGTSVTVSS
VL: DIVMTQSPSSLTVTAGEKVTMSCKSSQSLLNSGNQRNYLTWYQRKPGQPPKLLIYWASTRESGVPDRFTGSGSGTDFTLTISSVQAEDLTFYYCQNGYSYPLTFGAGTKLELK
For the molecule B3, the concentration for a half-maximal effect (EC50) in assay [1] is 0.044 µg/mL; in assay [2], 0.058 µg/mL. Moreover, the binding result in assay [3] is given as “no binding (tested: 1 µg/ml)”.

B4: chimeric Ab 7-G17-A (antibody, V domains shown)
VH: B3 VH with A24V, H35Y, M64V, I70M, T97A, F99I, T104A
VL: B3 VL with A15P, L30F, T40A, R44Q, T90A, F91V, G97D, S99F
In the case of B4, the EC50 in assay [1] is 0.033 µg/mL; in assay [2], 0.098 µg/mL.

B5: chimeric Ab 9-N14-A (antibody, V domains shown)
VH: B3 VH with H35Y, V48L, S56N, T57N, M64V, T97A, F99I, T104A, T115I
VL: B3 VL with R36K, R44Q, T90A, F91V, G97D, S99I, E111G
B5: the EC50 in assay [1] is 0.075 µg/mL; in assay [2], 0.218 µg/mL. Besides, the binding result in assay [3] is listed as “no binding (tested: 1 µg/ml)”.

B6: chimeric Ab 9-M7-A (antibody, V domains shown)
VH: EVQLVESGGALVKPGGSLKLSCAASGFTFSNYAMSWIRQTPEKRLEWVATIIIGGTYTYYPDSVKGRFTISRDNAKNTLYLQMSSLRSEDTALYYCARQVYGNSFAYWGQGTLVTVSA
VL: B2 VL with T22S, I28S, S78T, I91V, D97N, Y99I
As for B6, the EC50 is 0.095 µg/mL in assay [1] and 0.154 µg/mL in assay [2]. The binding result in assay [3] was “no binding (tested: 1 µg/ml)”.

B7: chimeric Ab 9-A13-B (antibody, V domains shown)
VH: B3 VH with T28S, Y50H, T97A
VL: B3 VL with R36K, R44Q, F91V
As to B7, the results for the EC50 in assay [1] and in assay [2] were 0.068 µg/mL and 0.15 µg/mL, respectively.

B8: chimeric Ab 1-H16-A (antibody, V domains shown)
VH: B3 VH with H35Y, Y50F, Y60C, M64V, T97A, F99I, T104A
VL: B3 VL with K18R, Q35L, R36K, R44Q, S83T, T90A, F91V, G97D, S99F
On to B8, for which the EC50 in assay [1] came to 0.101 µg/mL; in assay [2], 0.08 µg/mL.

B9: chimeric Ab 1-M5-A (antibody, V domains shown)
VH: B6 VH with P14S, K19R, Y32N, L93F, T115S
VL: B2 VL with T22S, I28S, S78T, I91V, D97N, Y99F
Consider B9, for which the EC50 in assay [1] came to 0.044 µg/mL; in assay [2], 0.042 µg/mL. In assay [3], the binding result is given as “no binding (tested: 1 µg/ml)”.

B10: chimeric Ab 9-B11-A (antibody, V domains shown)
VH: B3 VH with T57P, M64V, T97A, T104A
VL: B3 VL with R36K, R44Q, E61D, T90A, F91V, G97N, S99Y, K109N
For the molecule B10, the half-maximal effective concentration (EC50) in assay [1] is 0.045 µg/mL; in assay [2], 0.069 µg/mL. Moreover, in assay [3], the binding result is given as “no binding (tested: 1 µg/ml)”.

The values above are taken from US20210009686A1 (BEIJING XUANYI PHARMASCIENCES, published 2021).
